In patent US20180155451A1 (published 2018):
Substitutions are numbered along the chain they refer to. Numbers in names are those of the source.

T1: FcγRIIa H (FcγRIIa, allotype with His at position 131), extracellular domain with C-terminal His tag (human, UniProt P12318 34-217)
T1 construct: extracellular domain; Soluble receptor expressed in FreeStyle293 cells and used as the analyte in Biacore; also called FcgRIIa H; FcγRIIa type H; not shown: His tag attached to the C terminus
T1 sequence (looked up): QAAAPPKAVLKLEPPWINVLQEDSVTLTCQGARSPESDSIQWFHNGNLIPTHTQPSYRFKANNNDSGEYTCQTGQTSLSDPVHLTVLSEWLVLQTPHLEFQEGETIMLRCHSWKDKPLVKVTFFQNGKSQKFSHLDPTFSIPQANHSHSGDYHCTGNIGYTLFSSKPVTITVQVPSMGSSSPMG

T2: FcgRIIaH (human, UniProt P12318 34-217)
T2 construct: extracellular domain; Soluble extracellular domain with C-terminal His tag; also called FcγRIIa H; FcγRIIa type H; not shown: His tag attached to the C terminus
T2 sequence (looked up): T1 sequence (looked up)

T3: FcgRIIb (human, UniProt P31994 43-217)
T3 construct: extracellular domain; Soluble extracellular domain with C-terminal His tag; also called FcγRIIb; CD32B; not shown: His tag attached to the C terminus
T3 sequence (looked up): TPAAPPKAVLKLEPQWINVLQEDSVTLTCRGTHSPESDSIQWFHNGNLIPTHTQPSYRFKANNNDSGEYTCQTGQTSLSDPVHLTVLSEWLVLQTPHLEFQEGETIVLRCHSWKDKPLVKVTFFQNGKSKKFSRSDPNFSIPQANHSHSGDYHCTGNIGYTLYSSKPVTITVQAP

T4: FcgRIIaR (human, UniProt P12318 34-217)
T4 construct: extracellular domain; Soluble extracellular domain with C-terminal His tag; also called FcγRIIa R; FcγRIIa type R; not shown: His tag attached to the C terminus
T4 sequence (looked up): T1 sequence (looked up) with H134R

B1: GpH7-B3 variant T335_05P/GpL16-k0 (homodimerized antibody, Ho Ab) (antibody, human IgG1, kappa)
heavy: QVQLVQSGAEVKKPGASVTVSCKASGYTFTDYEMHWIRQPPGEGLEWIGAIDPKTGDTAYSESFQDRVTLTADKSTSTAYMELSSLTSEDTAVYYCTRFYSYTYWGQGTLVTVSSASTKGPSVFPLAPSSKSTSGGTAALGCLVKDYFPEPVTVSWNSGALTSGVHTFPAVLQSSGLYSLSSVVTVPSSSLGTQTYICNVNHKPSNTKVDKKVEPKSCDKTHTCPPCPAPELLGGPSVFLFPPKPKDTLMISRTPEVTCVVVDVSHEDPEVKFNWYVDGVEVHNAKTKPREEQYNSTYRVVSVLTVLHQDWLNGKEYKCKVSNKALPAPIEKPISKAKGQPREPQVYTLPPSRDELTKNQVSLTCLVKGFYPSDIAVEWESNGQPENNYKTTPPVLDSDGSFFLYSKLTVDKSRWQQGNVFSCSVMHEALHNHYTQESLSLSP
light: DIVMTQSPLSLPVTPGEPASISCQASESLVHSNRNTYLHWYLQKPGQSPQLLIYKVSNRFSGVPDRFSGSGSGTDFTLKISRVEAEDVGVYYCSQNTHVPPTFGQGTKVEIERTVAAPSVFIFPPSDEQLKSGTASVVCLLNNFYPREAKVQWKVDNALQSGNSQESVTEQDSKDSTYSLSSTLTLSKADYEKHKVYACEVTHQGLSSPVTKSFNRGEC
notes: Anti-glypican-3 IgG1 (GpH7-B3 background); substitution in both H chains; Position is EU numbering; also called Ho Ab T335P
B2: GpH7-B3 variant Y300_08L/GpL16-k0 (homodimerized antibody, Ho Ab) (antibody, human IgG1, kappa)
heavy: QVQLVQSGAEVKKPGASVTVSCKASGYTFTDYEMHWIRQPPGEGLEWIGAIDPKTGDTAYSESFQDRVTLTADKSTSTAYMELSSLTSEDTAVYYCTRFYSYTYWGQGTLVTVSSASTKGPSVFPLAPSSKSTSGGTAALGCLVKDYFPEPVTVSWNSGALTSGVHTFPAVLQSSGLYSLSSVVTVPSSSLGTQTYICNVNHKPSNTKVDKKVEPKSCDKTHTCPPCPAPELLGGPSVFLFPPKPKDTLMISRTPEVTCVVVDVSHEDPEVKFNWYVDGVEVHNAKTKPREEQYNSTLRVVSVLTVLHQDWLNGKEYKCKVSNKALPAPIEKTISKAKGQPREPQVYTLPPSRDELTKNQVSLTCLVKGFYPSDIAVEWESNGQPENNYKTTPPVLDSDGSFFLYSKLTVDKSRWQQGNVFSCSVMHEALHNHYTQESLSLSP
light: B1 light
notes: Anti-glypican-3 IgG1 (GpH7-B3 background); substitution in both H chains; Position is EU numbering; also called Ho Ab Y300L
B3: H240-Kn172/H240-Hl177/L73-k0 (antibody, human IgG1, kappa)
heavy 1: QDQLVQSGAEVKKPGASVKVSCKASGFNIKDTYIQWVRQAPGQGLEWMGRIDPLRKQTKYREKFEGRVTITADTSTNTAYMELSSLRSEDTAVYYCVRSGREFDYWGQGTLVTVSSASTKGPSVFPLAPSSKSTSGGTAALGCLVKDYFPEPVTVSWNSGALTSGVHTFPAVLQSSGLYSLSSVVTVPSSSLGTQTYICNVNHKPSNTKVDKKVEPKSCDKTHTCPPCPAPEYYWGPMVFLFPPKPKDTLMISRTPEVTCVVVDVSDEDPEVKFNWYVDGVEVHNAKTKPREEQYNATYRVVSVLTVLHQDWLNGKEYKCKVSNKDLPAPMEKTISKAKGQPREPQVCTLPPSRDELTKNQVSLWCLVKGFYPSDIAVEWESNGQPENNYKTTPPVLDSDGSFFLYSKLTVDKSRWQQGNVFSCSVMHEALHNHYTQKSLSLSP
heavy 2: QDQLVQSGAEVKKPGASVKVSCKASGFNIKDTYIQWVRQAPGQGLEWMGRIDPLRKQTKYREKFEGRVTITADTSTNTAYMELSSLRSEDTAVYYCVRSGREFDYWGQGTLVTVSSASTKGPSVFPLAPSSKSTSGGTAALGCLVKDYFPEPVTVSWNSGALTSGVHTFPAVLQSSGLYSLSSVVTVPSSSLGTQTYICNVNHKPSNTKVDKKVEPKSCDKTHTCPPCPAPELLGGPSVFLFPPKPKDTLMISRTPEVTCVVVDVSHEEPEVKFNWYVDGVEVHNAKTKPREEQYNSTYRVVSVLTVLHQDWLNGKEYKCKVSNDALPKPQEETISKAKGQPREPQVYTLPPSRCELTKNQVSLSCAVKGFYPSDIAVEWESNGQPENNYKTTPPVLDSDGSFFLVSKLTVDKSRWQQGNVFSCSVMHEALHNHYTQKSLSLSP
light: DIQMTQSPSSLSASVGDRVTITCRASQDIHKYIAWYQQKPGQAPRLLIQYTSTLQPGVPSRFSGSGSGTDYTFTISSLQPEDIATYYCLQYEQLRTFGGGTKVEIKRTVAAPSVFIFPPSDEQLKSGTASVVCLLNNFYPREAKVQWKVDNALQSGNSQESVTEQDSKDSTYSLSSTLTLSKADYEKHKVYACEVTHQGLSSPVTKSFNRGEC
notes: Heterodimerized anti-epiregulin IgG1 antibody; I332M introduced into H240-Kn120 and I332Q into H240-Hl068; also called H240-Kn172/H240-HI177/L73-k0
B4: H240-Kn178/H240-Hl068/L73-k0 (antibody, human IgG1, kappa)
heavy 1: B3 heavy 1 with M331I, K333Y
heavy 2: B3 heavy 2 with Q331I
light: B3 light
notes: Heterodimerized anti-epiregulin IgG1 antibody; K334Y introduced into H240-Kn120; also called H240-Kn178/H240-HI068/L73-k0
B5: H240-Kn173/H240-Hl068/L73-k0 (antibody, human IgG1, kappa)
heavy 1: B3 heavy 1 with M331Q
heavy 2: B3 heavy 2 with Q331I
light: B3 light
notes: Heterodimerized anti-epiregulin IgG1 antibody; I332Q introduced into H240-Kn120; also called H240-Kn173/H240-HI068/L73-k0
B6: GpH7-A5/GpH7-B3 variant T335_02A/GpL16-k0 (heterodimerized antibody, He Ab) (antibody, human IgG1, kappa)
heavy 1: not shown
heavy 2: not shown
light: B1 light
notes: Anti-glypican-3 IgG1; the substitution stands only in the GpH7-B3 chain, the other H chain is GpH7-A5 (D356K/H435R); Position is EU numbering; also called He Ab T335A
B7: GpH7-A5/GpH7-B3 variant T335_04F/GpL16-k0 (heterodimerized antibody, He Ab) (antibody, human IgG1, kappa)
heavy 1: not shown
heavy 2: not shown
light: B1 light
notes: Anti-glypican-3 IgG1; substitution only in the GpH7-B3 chain; Position is EU numbering; also called He Ab T335F

Biological target: T1, FcγRIIa H (FcγRIIa, allotype with His …)
Experiment: SPR (Biacore T100), antibody captured on antigen-peptide chip, FcγRIIa H as analyte; response per captured antibody relative to GpH7-B3/GpL16-k0
Experimental: (§1) Analysis of interaction between objective antibody and the FcγR was carried out using Biacore T100 (GE Healthcare). HBS-EP+ (GE Healthcare) was used as the running buffer, and the measurement temperature was set to 25° C. Chips produced by immobilizing the antigen peptide by the amine coupling method to a Series S Sencor Chip CM5 (GE Healthcare), or alternatively, chips produced by allowing preliminarily biotinylated antigen peptides to interact with and immobilize onto a Series S Sensor Chip SA (certified) (GE Healthcare) were used. Antibodies of interest were captured onto an antigen peptide-immobilized chip, and allowed to interact to each FcγR diluted with running buffer. To regenerate and repeatedly use the chip, the antibodies captured on the chip were washed off by reacting 10 mM glycine-HCl, pH 1.5.

Row | Ho/Con_2aH | Binder
1 | 115 relative binding activity (control homodimerized antibody GpH7-B3/GpL16-k0 = 100) | B1
2 | 115 relative binding activity (control homodimerized antibody GpH7-B3/GpL16-k0 = 100) | B2

Biological target: T5, FcgRIIIaF (human, UniProt P08637 17-208)
T5 construct: extracellular domain; Soluble extracellular domain with C-terminal His tag; polymorphic site made after J. Clin. Invest; also called FcγRIIIa F; not shown: His tag attached to the C terminus
T5 sequence (P08637 17-208): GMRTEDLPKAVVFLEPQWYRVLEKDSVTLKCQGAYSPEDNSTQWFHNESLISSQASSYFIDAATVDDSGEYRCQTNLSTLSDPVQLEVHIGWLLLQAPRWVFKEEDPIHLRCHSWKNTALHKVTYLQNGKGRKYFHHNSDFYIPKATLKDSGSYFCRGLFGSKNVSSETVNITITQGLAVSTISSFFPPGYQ
Experiment: SPR (Biacore), antibody captured, FcgR as analyte
Experimental: (§2) Analysis of interaction between obj ective antibody and the FcγR was carried out using Biacore T100 (GE Healthcare), Biacore T200, Biacore A100, and Biacore 4000. HBS-EP+ (GE Healthcare) was used as the running buffer, and the measurement temperature was set to 25° C. Chips produced by immobilizing the antigen peptide by the amine coupling method to a Series S sensor Chip CM5 (GE Healthcare), chips produced by allowing preliminarily biotinylated antigen peptides to interact with and immobilize onto a Series S Sensor Chip SA (certified) (GE Healthcare), chips produced by immobilizing Protein L (ACTIGEN, BioVision) to Series S Sencor Chip CM5 (GE Healthcare), or chips produced by immobilizing Protein A/G (Thermo Scientific) to Series S Sencor Chip CM5 (GE Healthcare) were used. Antibodies of interest were captured onto these chips, and allowed to interact to each FcγR diluted with running buffer. To regenerate and repeatedly use the chip, the antibodies captured onto the chip were washed off by reacting 10 mM glycine-HCl, pH 1.5.

Row | Kd [nM] | Binder
3 | 2 | B3
4 | 1.4 | B4
5 | 1.8 | B5

Biological target: T6, FcgRIa (human, UniProt P12314 16-292)
T6 construct: extracellular domain; Soluble extracellular domain with C-terminal His tag, expressed in FreeStyle293 cells; also called FcγRIa; FcγRI; not shown: His tag attached to the C terminus
T6 sequence (P12314 16-292): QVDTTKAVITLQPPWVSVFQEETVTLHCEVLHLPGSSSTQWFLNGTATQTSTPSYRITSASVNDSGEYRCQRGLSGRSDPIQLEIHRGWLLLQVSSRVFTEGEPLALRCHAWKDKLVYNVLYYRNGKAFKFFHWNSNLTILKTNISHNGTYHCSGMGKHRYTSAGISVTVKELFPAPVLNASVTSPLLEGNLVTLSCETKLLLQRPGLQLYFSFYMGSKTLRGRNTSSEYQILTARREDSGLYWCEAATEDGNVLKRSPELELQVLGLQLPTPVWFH
Experiment: SPR (Biacore), antibody captured, FcgR as analyte
Experimental: as §2

Row | Kd [nM] | Binder
6 | 0.25 | B3
7 | 0.23 | B4
8 | 0.12 | B5

Biological target: T2, FcgRIIaH
Experiment: SPR (Biacore), antibody captured, FcgR as analyte
Experimental: as §2

Row | Kd [nM] | Binder
9 | 57 | B3
10 | 65 | B4
11 | 57 | B5

Biological target: T3, FcgRIIb
Experiment: SPR (Biacore), antibody captured, FcgR as analyte
Experimental: as §2

Row | Kd [nM] | Binder
12 | 160 | B3
13 | 110 | B4
14 | 280 | B5

Biological target: T7, FcgRIIIaV (human, UniProt P08637 17-208)
T7 construct: extracellular domain; Soluble extracellular domain with C-terminal His tag; polymorphic site made after J. Clin. Invest; also called FcγRIIIa V; not shown: His tag attached to the C terminus
T7 sequence (P08637 17-208 F176V limits assumed): as the sequence (P08637 17-208) above, with F160V counted along it
Experiment: SPR (Biacore), antibody captured, FcgR as analyte
Experimental: as §2

Row | Kd [nM] | Binder
15 | 0.22 | B3
16 | 0.19 | B4
17 | 0.4 | B5

Biological target: T4, FcgRIIaR
Experiment: SPR (Biacore), antibody captured, FcgR as analyte
Experimental: as §2

Row | Kd [nM] | Binder
18 | 29 | B3
19 | 26 | B4
20 | 40 | B5

Biological target: T5, FcgRIIIaF
Experiment: SPR (Biacore); KD of H240-Kn120/H240-Hl068/L73-k0 divided by KD of this antibody
Experimental: (§3) Analysis of interaction between obj ective antibody and the FcγR was carried out using Biacore T100 (GE Healthcare), Biacore T200, Biacore A100, and Biacore 4000.

Row | Relative KD | Binder
21 | 1.1 | B3
22 | 1.6 | B4
23 | 1.2 | B5

Biological target: T6, FcgRIa
Experiment: as above
Experimental: as §3

Row | Relative KD | Binder
24 | 0.6 | B3
25 | 0.7 | B4
26 | 1.3 | B5

Biological target: T2, FcgRIIaH
Experiment: as above
Experimental: as §3

Row | Relative KD | Binder
27 | 0.7 | B3
28 | 0.6 | B4
29 | 0.7 | B5

Biological target: T3, FcgRIIb
Experiment: as above
Experimental: as §3

Row | Relative KD | Binder
30 | 0.9 | B3
31 | 1.4 | B4
32 | 0.5 | B5

Biological target: T7, FcgRIIIaV
Experiment: as above
Experimental: as §3

Row | Relative KD | Binder
33 | 1.6 | B3
34 | 1.9 | B4
35 | 0.9 | B5

Biological target: T4, FcgRIIaR
Experiment: as above
Experimental: as §3

Row | Relative KD | Binder
36 | 0.7 | B3
37 | 0.8 | B4
38 | 0.5 | B5

Biological target: T1, FcγRIIa H (FcγRIIa, allotype with His …)
Experiment: SPR (Biacore T100), antibody captured on antigen-peptide chip, FcγRIIa H as analyte; response per captured antibody relative to GpH7-A5/GpH7-B3/GpL16-k0
Experimental: as §1

Row | He/Con_2aH | Binder
39 | 101 relative binding activity (control heterodimerized antibody GpH7-A5/GpH7-B3/GpL16-k0 = 100) | B6
40 | 103 relative binding activity (control heterodimerized antibody GpH7-A5/GpH7-B3/GpL16-k0 = 100) | B7
